Laboratory results from paper PMC11894413, “The conformational landscape of TRiC ring-opening and its underlying stepwise mechanism revealed by cryo-EM” (QRB Discovery, 2024).
Values belong to the binder of their own block, whether it stands above or below them.

Tests used:
[1] = target: T1, CCT4 subunit of yeast TRiC/CCT (yeast, UniProt P39078 1-528); assay: cryo-EM structure; purified yeast TRiC, 1 mg/ml, with 1 mM ADP and 5 mM MgCl2, 15 min at 30 °C before freezing; five conformational states S1-S5 (closed to open) from one sample; contacts differ between the states; settings: both partners purified
T1 construct: CCT4 subunit of the chaperonin TRiC/CCT, yeast; subunit of the purified hetero-oligomeric complex; Purified according to Zang et al., 2016; source: endogenous, purified from yeast lysate as part of TRiC (calmodulin resin, eluted with 2 mM EGTA)
T1 sequence (P39078 whole entry): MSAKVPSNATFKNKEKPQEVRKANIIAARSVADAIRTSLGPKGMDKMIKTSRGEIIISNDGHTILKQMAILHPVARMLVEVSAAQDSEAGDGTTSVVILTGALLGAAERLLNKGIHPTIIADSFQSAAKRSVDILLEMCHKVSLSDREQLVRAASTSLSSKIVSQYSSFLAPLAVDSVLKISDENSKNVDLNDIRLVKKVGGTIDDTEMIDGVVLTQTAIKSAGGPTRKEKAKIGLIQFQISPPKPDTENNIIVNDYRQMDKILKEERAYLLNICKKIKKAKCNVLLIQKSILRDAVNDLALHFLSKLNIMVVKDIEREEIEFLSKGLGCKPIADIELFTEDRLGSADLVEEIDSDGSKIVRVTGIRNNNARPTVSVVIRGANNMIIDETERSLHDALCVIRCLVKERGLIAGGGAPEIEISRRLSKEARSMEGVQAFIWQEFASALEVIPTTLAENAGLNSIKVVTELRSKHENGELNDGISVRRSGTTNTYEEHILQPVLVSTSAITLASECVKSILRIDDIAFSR

[2] = target: the molecule itself; assay: as above

binding result [1]: binds
B1: CCT2 subunit of yeast TRiC/CCT (natural protein, UniProt P39076 1-527, looked up)
chain: MSVQIFGDQVTEERAENARLSAFVGAIAVGDLVKSTLGPKGMDKLLQSASSNTCMVTNDGATILKSIPLDNPAAKVLVNISKVQDDEVGDGTTSVTVLSAELLREAEKLIDQSKIHPQTIIEGYRLASAAALDALTKAAVDNSHDKTMFREDLIHIAKTTLSSKILSQDKDHFAELATNAILRLKGSTNLEHIQIIKILGGKLSDSFLDEGFILAKKFGNNQPKRIENAKILIANTTLDTDKVKIFGTKFKVDSTAKLAQLEKAEREKMKNKIAKISKFGINTFINRQLIYDYPEQLFTDLGINSIEHADFEGVERLALVTGGEVVSTFDEPSKCKLGECDVIEEIMLGEQPFLKFSGCKAGEACTIVLRGATDQTLDEAERSLHDALSVLSQTTKETRTVLGGGCAEMVMSKAVDTEAQNIDGKKSLAVEAFARALRQLPTILADNAGFDSSELVSKLRSSIYNGISTSGLDLNNGTIADMRQLGIVESYKLKRAVVSSASEAAEVLLRVDNIIRARPRTANRQHM
notes: CCT2 subunit of the chaperonin TRiC/CCT, yeast; subunit of the purified hetero-oligomeric complex; Purified according to Zang et al., 2016; source: endogenous, purified from yeast lysate as part of TRiC (calmodulin resin, eluted with 2 mM EGTA)
binding result [2]: binds

B2: CCT6 subunit of yeast TRiC/CCT (natural protein)
chain: not shown
notes: CCT6 subunit of the chaperonin TRiC/CCT, yeast; subunit of the purified hetero-oligomeric complex; Purified according to Zang et al., 2016; source: endogenous, purified from yeast lysate as part of TRiC (calmodulin resin, eluted with 2 mM EGTA)
binding result [2]: binds
